Target: neutravidin (UniProt P02701)
Experiment: phage ELISA, neutravidin alone

Chain of neutravidin (P02701 25-152): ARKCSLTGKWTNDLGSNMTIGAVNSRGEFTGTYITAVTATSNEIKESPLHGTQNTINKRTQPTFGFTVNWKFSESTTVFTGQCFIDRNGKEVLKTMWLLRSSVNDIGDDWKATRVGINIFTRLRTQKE

Binder | NAv bkgd
GGEWCLFDPDVPTCQD (peptide, not shown: large carriers) [Phage clone J465F09 displaying Peptide-22] | 0.051
GGQGCGTIADPEPHCW (peptide, not shown: large carriers) [Phage clone J466C02 displaying Peptide-25] | 0.061
GGMSDCGDPGVEICTH (peptide, not shown: large carriers) [Phage clone J457A04 displaying Peptide-20] | 0.092
GGIQCHDPDLPSPCYI (peptide, not shown: large carriers) [Phage clone J465E03 displaying Peptide-21] | 0.052
GGLCMIGDWLPGDVCL (peptide, not shown: large carriers) [Phage clone J467D04 displaying Peptide-28] | 0.058
GGLGCNDIDPGEQCIV (peptide, not shown: large carriers) [Phage clone J465D07 displaying Peptide-23] | 0.055
GGLECFDPEIPEAFCI (peptide, not shown: large carriers) [Phage clone J466C07 displaying Peptide-24] | 0.053
GGNCHDPDIPAYVLCS (peptide, not shown: large carriers) [Phage clone J479B08 displaying Peptide-26] | 0.084
GGLCPINDWEPQDICW (peptide, not shown: large carriers) [Phage clone J467F08 displaying Peptide-27] | 0.062
GGDSVCADPEVPICEI (peptide, not shown: large carriers) [Phage clone J476C07 displaying Peptide-19] | 0.051

Reference: patent US20240376226A1
